Laboratory results: patent US9315793B2, “Enzymes that synthesize zingiberene” (Board of Trustees of Michigan State University, priority 2011, dated 2016)

Experiment: Substrate specificity of recombinant LA2167-ZIS (GPP, NPP, EE-FPP or 2Z,6Z-FPP), GC-MS of products
Format: biochemical, Solanum habrochaites
Conditions: for substrate giving zingiberene (substrate specificity): no substrate, GPP, NPP, 2Z,6Z-FPP and E,E-FPP compared
Experimental: The synthetic gene was excised from the pUC57 cloning vector by digestion with BamHI and SalI and ligated into the pHIS8 vector previously linearized by digestion with the same enzymes. Recombinant clones were transformed into E. coli BL21 cells. A 5-mL log-phase culture of E. coli BL21 cells containing the expression vector was induced by addition of IPTG to a final concentration of 0.1 mM. The induced cells were incubated with agitation at 25° C. for 16 h, and then harvested by centrifugation at 10,000 g for 15 min. The cell pellet was resuspended in 1 mL extraction buffer (50 mM HEPES pH 8, 5% glycerol, 100 mM KCl, 7.5 mM MgCl2 containing 1 mM dithiothreitol (DTT)) prior to sonication. Soluble proteins were harvested after centrifugation at 10,000 g for 20 min. The supernatant was used for subsequent enzyme assays. Two micrograms of soluble protein were mixed with 10 μM of substrate (GPP, NPP, EE-FPP or 2Z,6Z-FPP (Echelon Biosciences Inc., Salt Lake City, Utah)) in a 2-mL glass vial. Reactions were allowed to proceed for 30 min at 30° C., and the glass vial headspace was collected with a 65 μm polydimethylsiloxane-divinylbenzene solid-phase microextraction fiber (Supelco, Bellefonte, Pa.). After 5 min of exposure at 42° C., the SPME fiber was retracted and transferred to the GC injector port for desorption at 200° C. onto the GC column for 3 min. The terpenes were separated on a DB5 column (10 m length, inner diameter and 0.25 um). The GC-MS analysis was performed as described previously […] et al. (Plant Physiol 153, 1212-1223 (2010)).

B1: LA2167-ZIS: sesquiterpene (zingiberene) synthase of Solanum habrochaites accession LA2167, SEQ ID NO:2; codon-optimized form lacking chloroplast transit sequence SEQ ID NO:4 (protein)
chain: MIVGYRSTIITLSHPKLGNGKTISSNAIFRRSCRVRCSHSTPSSMNGFEDARDRIRESFGKVELSPSSYDTAWVAMVPSKHSLNEPCFPQCLDWIIENQREDGSWGLNPSHPLLLKDSLSSTLACLLALTKWRVGDEQIKRGLGFIETQSWAIDNKDQISPLGFEIIFPSMIKSAEKLNLNLAINKRDSTIKRALQNEFTRNIEYMSEGFGELCDWKEIIKLHQRQNGSLFDSPATTAAALIYHQHDKKCYEYLNSILQQHKNWVPTMYPTKIHSLLCLVDTLQNLGVHRHFKSEIKKALDEIYRLWQQKNEEIFSNVTHCAMAFRLLRISYYDVSSDELAEFVDEEHFFATSGKYTSHVEILELHKASQLAIDHEKDDILDKINNWTRTFMEQKLLNNGFIDRMSKKEVELALRNFYIISDLAENRRYIKSYEENNFKILKAAYRSPNINNKDLFIFSIRDFELCQAQHQEELQQLKRWFEDCRLDQLGLSEQFISASYLCAIPIVPGPELSDARLVYAKYVMLLTIVDDHFESFASTDECLNIIELVERWDDYASVGYKSERVKVLFSMFYKSIEEIATIAEIKQGRSVKNHLINLWLKVMKLMLMERVEWCSGKTIPRIEEYLYVSSITFGSRLIPLTTQYFIGIKISKDLLESDEIYGLCNFTGIVLRLLNDLQDSKREQKEGSINLVTLLMKSISEEEAIMKMKEILEMKRRELFKMVLVQKKGSQLPQLCKEIFWRTCKWAHFTYSQTDRYRFPEEMENHIDEVFYKPLNH
modifications: Solanum habrochaites
Q: Which “product synthesis with geranyl diphosphate (GPP) as substrate” value (GPP supplied as substrate) does the source give for B1 here?
A: Its value is “failed to synthesize any products”.

Q: And the “product synthesis with neryl diphosphate (NPP) as substrate” value (NPP supplied as substrate)?
A: The value was “failed to synthesize any products”.

Q: What about the “substrate giving zingiberene (substrate specificity)” value of the same molecule?
A: The value was “only observed when 2Z,6Z-farnesyl diphosphate is used as substrate”.

Q: What about the “substrate giving zingiberene (substrate specificity)” value (listed as zingiberene synthase from accession LA2167) of the same molecule?
A: Its value is “only uses 2Z,6Z-farnesyl diphosphate”.
